What was measured:
[1] = physiological pH
[2] = MALDI-TOF mass spectrum of native and microneedle-released insulin/glucagon; format: physicochemical; details: throughout the polymerization process

insulin: Human recombinant insulin purchased from Thermo Fisher Scientific
solubility [1]: high solubility | integrity of protein released from microneedles [2]: stayed intact
